Patent US20260116920A1 (PEPTIDREAM, published 2026)
Starred links: 1 amine or outer side, 2 acyl side, 3 side chain; linkers in the order of their positions; H or OH if unused. Positions of bridges follow the written chain, without caps; N, C: chain ends. Non-standard residues stand in square brackets, D forms with d. Primed or numbered codes have the meaning given here. No end group written: not given here. *: point of attachment. MePEG4c″ = K(MePEG4c) = (S)-20-amino-14-oxo-2,5,8,11-tetraoxa-15-azahenicosane-21-oic acid (Lys side chain acylated with methoxy-PEG4 acid), COCCOCCOCCOCCC(=O)*; E(PEG8Me) = (S)-30-amino-27-oxo-2,5,8,11,14,17,20,23-octaoxa-26-azahentriacontane-31-oic acid, COCCOCCOCCOCCOCCOCCOCCOCCNC(=O)CC[C@H](N[*:1])C(=O)[*:2]; F4aao = (S)-2-amino-3-(4-(carboxymethoxy)phenyl)propanoic acid, O=C([C@H](Cc1ccc(OCC(=O)[*:3])cc1)N[*:1])[*:2]; MePEG4c = K(MePEG4c) = (S)-20-amino-14-oxo-2,5,8,11-tetraoxa-15-azahenicosane-21-oic acid, COCCOCCOCCOCCC(=O)*; Phe(4-OMe)″ = (S)-2-amino-3-(4-methoxyphenyl)propanoic acid (F4OMe), COc1ccc(C[C@H](N[*:1])C(=O)[*:2])cc1; Phe(4-OMe) = F4OMe = (S)-2-amino-3-(4-methoxyphenyl)propanoic acid, COc1ccc(C[C@H](N[*:1])C(=O)[*:2])cc1; Trp(1-CH2CO) = O=C([C@H](Cc1cn(CC(=O)[*:3])c2ccccc12)N[*:1])[*:2]; Trp(5-Cl) = N[C@@H](Cc1c[nH]c2ccc(Cl)cc12)C(=O)O; Phe(3-COOH) = N[C@@H](Cc1cccc(C(=O)O)c1)C(=O)O; NMePhe(3-Cl) = CN[C@@H](Cc1cccc(Cl)c1)C(=O)O; NMePhe(4-F) = CN[C@@H](Cc1ccc(F)cc1)C(=O)O; 3Pal(6-NH2) = Nc1ccc(C[C@H](N)C(=O)O)cn1; NMeW = CN[C@@H](Cc1c[nH]c2ccccc12)C(=O)O; NMe3Pal = CN[C@@H](Cc1cccnc1)C(=O)O; NMe4Pal = CN[C@@H](Cc1ccncc1)C(=O)O; NMeY = CN[C@@H](Cc1ccc(O)cc1)C(=O)O; NMeR = CN[C@@H](CCCNC(=N)N)C(=O)O; NMeF = CN[C@@H](Cc1ccccc1)C(=O)O; 3Pal = N[C@@H](Cc1cccnc1)C(=O)O; 4Pal = N[C@@H](Cc1ccncc1)C(=O)O; NMeA = CN[C@@H](C)C(=O)O

The binders below were run against T1, human transferrin receptor (hTfR) (human, UniProt P02786 89-760) (assay: SPR; B = KD 1-100 nM).
T1 construct: used as 0.5 uM hTfR dimer solution, immobilised on an NTA sensor chip (Ni capture plus EDC/NHS coupling); also called human TfR; TfR1
T1 sequence (P02786 89-760 limits assumed): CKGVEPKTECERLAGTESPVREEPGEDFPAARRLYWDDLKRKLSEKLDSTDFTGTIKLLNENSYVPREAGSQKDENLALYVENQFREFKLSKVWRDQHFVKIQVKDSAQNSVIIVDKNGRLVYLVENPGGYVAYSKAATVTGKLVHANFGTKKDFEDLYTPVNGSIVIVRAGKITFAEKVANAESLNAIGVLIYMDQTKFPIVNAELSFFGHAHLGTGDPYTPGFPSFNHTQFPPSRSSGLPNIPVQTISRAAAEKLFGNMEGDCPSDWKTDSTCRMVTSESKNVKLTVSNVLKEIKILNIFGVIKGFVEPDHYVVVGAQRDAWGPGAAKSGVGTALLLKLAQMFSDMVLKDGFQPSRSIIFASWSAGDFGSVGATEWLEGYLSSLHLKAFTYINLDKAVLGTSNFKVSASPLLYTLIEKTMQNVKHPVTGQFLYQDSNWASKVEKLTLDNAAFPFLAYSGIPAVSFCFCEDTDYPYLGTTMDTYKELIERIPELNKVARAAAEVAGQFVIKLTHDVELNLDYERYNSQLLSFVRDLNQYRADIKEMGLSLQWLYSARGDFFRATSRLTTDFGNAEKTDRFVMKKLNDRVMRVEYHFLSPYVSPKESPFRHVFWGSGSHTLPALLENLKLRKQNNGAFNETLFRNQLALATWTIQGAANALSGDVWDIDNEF
Protocol: NTA sensor chip (Global Life Sciences Technologies Japan K.K.) was inserted into BiacoreT200 (Global Life Sciences Technologies Japan K.K.), then the priming operation was performed three times by using running buffer containing: 10 mM HEPES pH 8.0 (Nacalai Tesque, Inc.), 150 mM NaCl (Nacalai Tesque, Inc.), 0.05% Tween 20 (Nacalai Tesque, Inc.), 0.1% BSA (SIGMA-ALDRICH) and 1.0% DMSO (FUJIFILM Wako Pure Chemical Corporation), and equilibrated at a flow rate of 30 μL/min. 350 mM EDTA solution was reacted at a flow rate of 10 μL/min for 60 seconds, 0.5 mM […] solution (Kishida Chemical Co., Ltd.) was reacted at a flow rate of 10 μL/min for 60 seconds, and then the NTA sensor chip was washed with 3 mM EDTA solution (Nacalai Tesque, Inc.) at a flow rate of 10 μL/min for 60 seconds. After mixing 50 μL each of 60 mM EDC solution (Global Life Science Technologies Japan K.K.) and 650 mM NHS solution (Global Life Science Technologies Japan K.K.), the reaction was carried out at a flow rate of 10 μL/min for 420 seconds. 150 μL of 0.5 μM hTfR dimer solution was prepared by dilution with running buffer and reacted at a flow rate of 10 μL/min for 300 seconds to immobilize hTfR on the NTA sensor chip. For the human transferrin receptor (hTfR), recombinant hTfR described in Example 2 of WO2018/124121 was used. After immobilization, capping was performed by reacting with 1.0 M ethanolamine solution (Global Life Sciences Technologies Japan K.K.) at a flow rate of 10 μL/min for 420 seconds. Peptide lysate prepared in DMSO solution to 10 mM was diluted with running buffer to be a final concentration of 10 μM peptide lysate, then peptide solutions of 100 nM, 50 nM, 25 nM, 10 nM, and 5 nM were prepared. Using the above samples, the kinetics of the peptide against hTfR was obtained by SPR measurement.
The kinetic evaluation model was single-cycle kinetics, and curve fitting was performed using Biacore T200 Evaluation Software Version 3.0 (Global Life Science Technologies Japan K.K.). The binding of the peptide to hTfR was evaluated by performing curve fitting on the obtained sensorgram by least squares method and obtaining the KD value.

KD, 1 to 100 nM:
{CH2CO}-AV[NMePhe(4-F)]V[Trp(5-Cl)]NY[Phe(4-OMe)]II[NMeR]K(MePEG4c)FYC-NH2 (thioether N-15; not fully specified (residue 14)) [894_0268]
{CH2CO}-AV[NMePhe(4-F)]V[NMeW]NY[Phe(4-OMe)]II[NMeR]K(MePEG4c″)FYC-NH2 (thioether N-15; not fully specified (residue 14)) [894_0272]
{CH2CO}-AV[NMeF]VWNY[F4aao]IIRRYYC-NH2 (thioether N-15; not fully specified (residue 14); also: linker PEG4c) [894_0296]
{CH2CO}-AV[NMeF]VWNYYII[NMeR]RFYC-NH2 (thioether N-15; not fully specified (residue 14); also: linker PEG4c) [894_0284, listing 1 of 2 here]
{CH2CO}-AV[NMePhe(4-F)]V[NMeW]NYYII[NMeR]K(MePEG4c″)FYC-NH2 (thioether N-15; not fully specified (residue 14)) [894_0271]
{CH2CO}-AV[NMePhe(3-Cl)]VWNY[3Pal]IIRRF[NMeY]C (thioether N-15; not fully specified (C-terminus)) [894_0318]
{CH2CO}-AV[NMePhe(3-Cl)]VWN[3Pal(6-NH2)][3Pal]IIRR[4Pal][NMeY]C-NH2 (thioether N-15; also: linker PEG4c) [894_0310]
{CH2CO}-AV[NMePhe(3-Cl)]VWN[3Pal(6-NH2)][Phe(4-OMe)″]IIRR[4Pal][NMeY]C-NH2 (thioether N-15; also: linker PEG4c) [894_0311]
{CH2CO}-AV[NMe3Pal]VWNY[Phe(4-OMe)″]IIRRF[NMeY]C-NH2 (thioether N-15; also: linker PEG4c) [894_0313]
{CH2CO}-AV[NMeF]V[Trp(1-CH2CO)]NY[F4aao]IIRRYYC-NH2 (thioether N-15; not fully specified (residue 14); also: linker PEG4c) [894_0297]
{CH2CO}-[NMeA]V[NMePhe(3-Cl)]V[NMeW]NY[Phe(4-OMe)]IIR[dA]FYC-NH2 (thioether N-15; not fully specified (residue 14); also: linker PEG4c) [894_0287]
{CH2CO}-AV[NMePhe(4-F)]V[NMeW]NYYIIK(MePEG4c″)[dR]FYC-NH2 (thioether N-15; not fully specified (residue 14)) [894_0269]
{CH2CO}-AV[NMePhe(3-Cl)]V[Trp(1-CH2CO)]NY[F4aao]II[E(PEG8Me)]R[Phe(3-COOH)][NMeY]C (thioether N-15; not fully specified (C-terminus)) [894_0301]
{CH2CO}-AV[NMePhe(4-F)]V[NMeW]NY[Phe(4-OMe)]IIK(MePEG4c″)[dR]FYC-NH2 (thioether N-15; not fully specified (residue 14)) [894_0270]
{CH2CO}-AV[NMePhe(3-Cl)]V[Trp(1-CH2CO)]NY[F4aao]IIR[E(PEG8Me)]F[NMeY]C (thioether N-15; not fully specified (C-terminus)) [894_0299]
{CH2CO}-AV[NMePhe(3-Cl)]V[Trp(1-CH2CO)]NY[F4aao]IIQRF[NMeY]C (thioether N-15; not fully specified (C-terminus)) [894_0302]
{CH2CO}-AV[NMeF]VWNYYIIR[dR]FYC-NH2 (thioether N-15; not fully specified (residue 14); also: linker PEG4c) [894_0282, listing 1 of 2 here]
{CH2CO}-AV[NMe4Pal]VWNY[Phe(4-OMe)″]IIRRF[NMeY]C-NH2 (thioether N-15; also: linker PEG4c) [894_0314]
{CH2CO}-AV[NMe3Pal]VWNY[Phe(4-OMe)″]IIRR[4Pal][NMeY]C-NH2 (thioether N-15; also: linker PEG4c) [894_0316]
{CH2CO}-AV[NMePhe(3-Cl)]V[Trp(1-CH2CO)]NY[3Pal]IIRR[4Pal][NMeY]C (thioether N-15; not fully specified (C-terminus)) [894_0306]
{CH2CO}-AV[NMePhe(3-Cl)]V[Trp(1-CH2CO)]N[3Pal(6-NH2)][Phe(4-OMe)″]IIRR[4Pal][NMeY]C (thioether N-15; not fully specified (C-terminus)) [894_0308]
{CH2CO}-AV[NMePhe(3-Cl)]V[Trp(1-CH2CO)]N[3Pal(6-NH2)][3Pal]IIRR[4Pal][NMeY]C (thioether N-15; not fully specified (C-terminus)) [894_0307]
{CH2CO}-AV[NMeF]VWNYYII[NMeR]RFYC-NH2 (thioether N-15; not fully specified (residue 14); also: linker PEG4c) [894_0284, listing 2 of 2 here]
{CH2CO}-AV[NMePhe(3-Cl)]V[Trp(1-CH2CO)]NY[F4aao]II[E(PEG8Me)]RF[NMeY]C (thioether N-15; not fully specified (C-terminus)) [894_0298]
{CH2CO}-AV[NMePhe(3-Cl)]V[Trp(1-CH2CO)]NY[F4aao]IIRQF[NMeY]C (thioether N-15; not fully specified (C-terminus)) [894_0303]
{CH2CO}-AV[NMePhe(3-Cl)]VWNY[4Pal]IIRR[4Pal][NMeY]C-NH2 (thioether N-15; also: linker PEG4c) [894_0312]
{CH2CO}-AV[NMePhe(3-Cl)]VWNY[3Pal]IIRR[4Pal][NMeY]C (thioether N-15; not fully specified (C-terminus)) [894_0309]
{CH2CO}-AV[NMeF]VWNYYIIR[dR]FYC-NH2 (thioether N-15; not fully specified (residue 14); also: linker PEG4c) [894_0282, listing 2 of 2 here]
{CH2CO}-AV[NMePhe(3-Cl)]VWN[3Pal(6-NH2)][Phe(4-OMe)″]IIRRF[NMeY]C-NH2 (thioether N-15; also: linker PEG4c) [894_0315]
